Results reported in patent US20260209386A1 (MYTHIC THERAPEUTICS, published 2026).

T1: Human PTK7 Protein, His Tag, Acro Biosystems (human, UniProt Q13308 31-704)
T1 construct: Bought recombinant protein; also called CCK4; not shown: His tag
T1 sequence: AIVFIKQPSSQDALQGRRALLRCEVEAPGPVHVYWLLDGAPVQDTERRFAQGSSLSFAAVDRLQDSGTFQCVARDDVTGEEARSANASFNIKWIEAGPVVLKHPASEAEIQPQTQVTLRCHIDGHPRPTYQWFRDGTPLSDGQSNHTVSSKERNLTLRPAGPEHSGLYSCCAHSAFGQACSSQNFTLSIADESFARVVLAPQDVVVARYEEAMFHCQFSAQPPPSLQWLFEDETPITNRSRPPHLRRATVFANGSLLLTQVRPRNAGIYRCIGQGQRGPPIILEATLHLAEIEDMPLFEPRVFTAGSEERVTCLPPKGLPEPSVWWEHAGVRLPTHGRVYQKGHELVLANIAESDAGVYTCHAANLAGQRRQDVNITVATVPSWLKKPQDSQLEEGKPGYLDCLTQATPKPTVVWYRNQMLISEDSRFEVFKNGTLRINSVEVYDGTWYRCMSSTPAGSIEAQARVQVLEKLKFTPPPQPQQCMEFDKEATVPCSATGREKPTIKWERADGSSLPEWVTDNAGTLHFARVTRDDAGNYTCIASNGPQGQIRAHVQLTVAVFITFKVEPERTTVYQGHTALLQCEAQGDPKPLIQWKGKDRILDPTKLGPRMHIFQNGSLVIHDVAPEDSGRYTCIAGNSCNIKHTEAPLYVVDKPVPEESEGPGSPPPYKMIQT

T2: Human PTK7 Protein, His Tag (Acro Biosystems) (human, UniProt Q13308 31-704)
T2 construct: Bought His-tagged protein; also called CCK4; not shown: His tag
T2 sequence: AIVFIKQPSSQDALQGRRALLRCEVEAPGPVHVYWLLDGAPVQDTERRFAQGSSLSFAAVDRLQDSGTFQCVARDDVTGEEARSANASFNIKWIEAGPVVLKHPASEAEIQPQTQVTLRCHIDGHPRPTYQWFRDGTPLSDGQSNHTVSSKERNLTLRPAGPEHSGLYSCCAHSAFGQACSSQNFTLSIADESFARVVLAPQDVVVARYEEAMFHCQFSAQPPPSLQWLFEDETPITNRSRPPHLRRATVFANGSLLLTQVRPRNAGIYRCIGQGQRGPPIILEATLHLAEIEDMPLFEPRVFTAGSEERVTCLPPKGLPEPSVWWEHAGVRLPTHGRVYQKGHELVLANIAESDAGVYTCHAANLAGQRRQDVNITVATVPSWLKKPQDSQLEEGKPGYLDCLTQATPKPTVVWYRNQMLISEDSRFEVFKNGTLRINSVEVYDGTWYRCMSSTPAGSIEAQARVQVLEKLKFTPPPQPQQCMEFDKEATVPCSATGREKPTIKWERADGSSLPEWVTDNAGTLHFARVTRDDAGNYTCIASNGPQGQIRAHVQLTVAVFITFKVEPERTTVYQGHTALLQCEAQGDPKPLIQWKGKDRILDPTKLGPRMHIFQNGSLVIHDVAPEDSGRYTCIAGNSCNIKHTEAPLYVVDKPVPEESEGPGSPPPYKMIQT


Target: T1, Human PTK7 Protein, His Tag, Acro …
Experiment: BLI, anti-human Fc capture, 50 nM PTK7; 2 = substantially similar binding relative to parent

binding result | Binder
binds | MYT11102 (antibody, V domains shown, MYT9412 HC variant) VH: EVQLVESGGGLVQPGGSLRLSCTASHFSLSTYAMSWVRQAPGKGLEWVGMIYINDNTYYASWAKGRFTISRDTSKNTVYLQMNSLRAEDTAVYFCARDIGISYYIGVSLWGQGTLVTVSS VL: EIVMTQSPSTLSASVGDRVIITCQASQSIGTRLSWYQQKPGKAPKLLIYGASKLATGVPSRFSGSGSGAEFTLTISSLQPDDFATYYCLGEYSYTTTDGIAFGQGTKLTVL

Target: T2, Human PTK7 Protein, His Tag (Acro …)
Experiment: BLI (Octet), antibody on anti-human Fc sensor, 50 nM PTK7; grade 2 = substantially similar binding relative to parent

Binder | binding result
MYT11072 (antibody, V domains shown, MYT9361 LC variant) VH: EVQLVESGGGLVQPGGSLRLSCTASGLSLSSYWMSWVRQAPGKGLEWVGVISAGGNTYYANWAKGRFTISRDTSKNTVYLQMNSLRAEDTAVYFCARGDDGYTNAAYVSNLWGQGTLVTVSS VL: EIVMTQSPSTLSASVGDRVIITCHASQSISSWLSWYQQKPGKAPKLLIYKASTLASGVPSRFSGSGSGAEFTLTISSLQPDDFATYYCQSYFDSTTIAFGQGTKLTVL | binds
MYT11097 (antibody, V domains shown, MYT9361 LC variant) VH: EVQLVESGGGLVQPGGSLRLSCTASGLSLSSYWMSWVRQAPGKGLEWVGVISAGGNTYYANWAKGRFTISRDTSKNTVYLQMNSLRAEDTAVYFCARGDDGYTNAAYVSNLWGQGTLVTVSS VL: EIVMTQSPSTLSASVGDRVIITCQASQSISSWLSWYQQKPGKAPKLLIYKASTLASGVPSRFSGSGSGAEFTLTISSLQPDDFATYYCQSYFDSTHIAFGQGTKLTVL | binds
MYT11098 (antibody, V domains shown, MYT9361 LC variant) VH: EVQLVESGGGLVQPGGSLRLSCTASGLSLSSYWMSWVRQAPGKGLEWVGVISAGGNTYYANWAKGRFTISRDTSKNTVYLQMNSLRAEDTAVYFCARGDDGYTNAAYVSNLWGQGTLVTVSS VL: EIVMTQSPSTLSASVGDRVIITCQASQSISSWLSWYQQKPGKAPKLLIYKASTLASGVPSRFSGSGSGAEFTLTISSLQPDDFATYYCQSYFDSTTHAFGQGTKLTVL | binds
MYT11080 (antibody, V domains shown, MYT9361 LC variant) VH: EVQLVESGGGLVQPGGSLRLSCTASGLSLSSYWMSWVRQAPGKGLEWVGVISAGGNTYYANWAKGRFTISRDTSKNTVYLQMNSLRAEDTAVYFCARGDDGYTNAAYVSNLWGQGTLVTVSS VL: EIVMTQSPSTLSASVGDRVIITCQASQSISSHLSWYQQKPGKAPKLLIYKASTLASGVPSRFSGSGSGAEFTLTISSLQPDDFATYYCQSYFDSTTIAFGQGTKLTVL | binds
MYT11089 (antibody, V domains shown, MYT9361 LC variant) VH: EVQLVESGGGLVQPGGSLRLSCTASGLSLSSYWMSWVRQAPGKGLEWVGVISAGGNTYYANWAKGRFTISRDTSKNTVYLQMNSLRAEDTAVYFCARGDDGYTNAAYVSNLWGQGTLVTVSS VL: EIVMTQSPSTLSASVGDRVIITCQASQSISSWLSWYQQKPGKAPKLLIYKASTLAHGVPSRFSGSGSGAEFTLTISSLQPDDFATYYCQSYFDSTTIAFGQGTKLTVL | binds
MYT11083 (antibody, V domains shown, MYT9361 LC variant) VH: EVQLVESGGGLVQPGGSLRLSCTASGLSLSSYWMSWVRQAPGKGLEWVGVISAGGNTYYANWAKGRFTISRDTSKNTVYLQMNSLRAEDTAVYFCARGDDGYTNAAYVSNLWGQGTLVTVSS VL: EIVMTQSPSTLSASVGDRVIITCQASQSISSWLSWYQQKPGKAPKLLIYHASTLASGVPSRFSGSGSGAEFTLTISSLQPDDFATYYCQSYFDSTTIAFGQGTKLTVL | binds
MYT11095 (antibody, V domains shown, MYT9361 LC variant) VH: EVQLVESGGGLVQPGGSLRLSCTASGLSLSSYWMSWVRQAPGKGLEWVGVISAGGNTYYANWAKGRFTISRDTSKNTVYLQMNSLRAEDTAVYFCARGDDGYTNAAYVSNLWGQGTLVTVSS VL: EIVMTQSPSTLSASVGDRVIITCQASQSISSWLSWYQQKPGKAPKLLIYKASTLASGVPSRFSGSGSGAEFTLTISSLQPDDFATYYCQSYFDHTTIAFGQGTKLTVL | binds
MYT11075 (antibody, V domains shown, MYT9361 LC variant) VH: EVQLVESGGGLVQPGGSLRLSCTASGLSLSSYWMSWVRQAPGKGLEWVGVISAGGNTYYANWAKGRFTISRDTSKNTVYLQMNSLRAEDTAVYFCARGDDGYTNAAYVSNLWGQGTLVTVSS VL: EIVMTQSPSTLSASVGDRVIITCQASHSISSWLSWYQQKPGKAPKLLIYKASTLASGVPSRFSGSGSGAEFTLTISSLQPDDFATYYCQSYFDSTTIAFGQGTKLTVL | binds
MYT11076 (antibody, V domains shown, MYT9361 LC variant) VH: EVQLVESGGGLVQPGGSLRLSCTASGLSLSSYWMSWVRQAPGKGLEWVGVISAGGNTYYANWAKGRFTISRDTSKNTVYLQMNSLRAEDTAVYFCARGDDGYTNAAYVSNLWGQGTLVTVSS VL: EIVMTQSPSTLSASVGDRVIITCQASQHISSWLSWYQQKPGKAPKLLIYKASTLASGVPSRFSGSGSGAEFTLTISSLQPDDFATYYCQSYFDSTTIAFGQGTKLTVL | binds

The next lines start with the values.

binding result | Binder
binds | MYT11086 (antibody, V domains shown, MYT9361 LC variant) VH: EVQLVESGGGLVQPGGSLRLSCTASGLSLSSYWMSWVRQAPGKGLEWVGVISAGGNTYYANWAKGRFTISRDTSKNTVYLQMNSLRAEDTAVYFCARGDDGYTNAAYVSNLWGQGTLVTVSS VL: EIVMTQSPSTLSASVGDRVIITCQASQSISSWLSWYQQKPGKAPKLLIYKASHLASGVPSRFSGSGSGAEFTLTISSLQPDDFATYYCQSYFDSTTIAFGQGTKLTVL
binds | MYT11073 (antibody, V domains shown, MYT9361 LC variant) VH: EVQLVESGGGLVQPGGSLRLSCTASGLSLSSYWMSWVRQAPGKGLEWVGVISAGGNTYYANWAKGRFTISRDTSKNTVYLQMNSLRAEDTAVYFCARGDDGYTNAAYVSNLWGQGTLVTVSS VL: EIVMTQSPSTLSASVGDRVIITCQHSQSISSWLSWYQQKPGKAPKLLIYKASTLASGVPSRFSGSGSGAEFTLTISSLQPDDFATYYCQSYFDSTTIAFGQGTKLTVL
binds | MYT11090 (antibody, V domains shown, MYT9361 LC variant) VH: EVQLVESGGGLVQPGGSLRLSCTASGLSLSSYWMSWVRQAPGKGLEWVGVISAGGNTYYANWAKGRFTISRDTSKNTVYLQMNSLRAEDTAVYFCARGDDGYTNAAYVSNLWGQGTLVTVSS VL: EIVMTQSPSTLSASVGDRVIITCQASQSISSWLSWYQQKPGKAPKLLIYKASTLASGVPSRFSGSGSGAEFTLTISSLQPDDFATYYCHSYFDSTTIAFGQGTKLTVL
binds | MYT11099 (antibody, V domains shown, MYT9361 LC variant) VH: EVQLVESGGGLVQPGGSLRLSCTASGLSLSSYWMSWVRQAPGKGLEWVGVISAGGNTYYANWAKGRFTISRDTSKNTVYLQMNSLRAEDTAVYFCARGDDGYTNAAYVSNLWGQGTLVTVSS VL: EIVMTQSPSTLSASVGDRVIITCQASQSISSWLSWYQQKPGKAPKLLIYKASTLASGVPSRFSGSGSGAEFTLTISSLQPDDFATYYCQSYFDSTTIHFGQGTKLTVL
binds | MYT11092 (antibody, V domains shown, MYT9361 LC variant) VH: EVQLVESGGGLVQPGGSLRLSCTASGLSLSSYWMSWVRQAPGKGLEWVGVISAGGNTYYANWAKGRFTISRDTSKNTVYLQMNSLRAEDTAVYFCARGDDGYTNAAYVSNLWGQGTLVTVSS VL: EIVMTQSPSTLSASVGDRVIITCQASQSISSWLSWYQQKPGKAPKLLIYKASTLASGVPSRFSGSGSGAEFTLTISSLQPDDFATYYCQSHFDSTTIAFGQGTKLTVL
binds | MYT11087 (antibody, V domains shown, MYT9361 LC variant) VH: EVQLVESGGGLVQPGGSLRLSCTASGLSLSSYWMSWVRQAPGKGLEWVGVISAGGNTYYANWAKGRFTISRDTSKNTVYLQMNSLRAEDTAVYFCARGDDGYTNAAYVSNLWGQGTLVTVSS VL: EIVMTQSPSTLSASVGDRVIITCQASQSISSWLSWYQQKPGKAPKLLIYKASTHASGVPSRFSGSGSGAEFTLTISSLQPDDFATYYCQSYFDSTTIAFGQGTKLTVL
binds | MYT11085 (antibody, V domains shown, MYT9361 LC variant) VH: EVQLVESGGGLVQPGGSLRLSCTASGLSLSSYWMSWVRQAPGKGLEWVGVISAGGNTYYANWAKGRFTISRDTSKNTVYLQMNSLRAEDTAVYFCARGDDGYTNAAYVSNLWGQGTLVTVSS VL: EIVMTQSPSTLSASVGDRVIITCQASQSISSWLSWYQQKPGKAPKLLIYKAHTLASGVPSRFSGSGSGAEFTLTISSLQPDDFATYYCQSYFDSTTIAFGQGTKLTVL
binds | MYT11074 (antibody, V domains shown, MYT9361 LC variant) VH: EVQLVESGGGLVQPGGSLRLSCTASGLSLSSYWMSWVRQAPGKGLEWVGVISAGGNTYYANWAKGRFTISRDTSKNTVYLQMNSLRAEDTAVYFCARGDDGYTNAAYVSNLWGQGTLVTVSS VL: EIVMTQSPSTLSASVGDRVIITCQAHQSISSWLSWYQQKPGKAPKLLIYKASTLASGVPSRFSGSGSGAEFTLTISSLQPDDFATYYCQSYFDSTTIAFGQGTKLTVL
binds | MYT11088 (antibody, V domains shown, MYT9361 LC variant) VH: EVQLVESGGGLVQPGGSLRLSCTASGLSLSSYWMSWVRQAPGKGLEWVGVISAGGNTYYANWAKGRFTISRDTSKNTVYLQMNSLRAEDTAVYFCARGDDGYTNAAYVSNLWGQGTLVTVSS VL: EIVMTQSPSTLSASVGDRVIITCQASQSISSWLSWYQQKPGKAPKLLIYKASTLHSGVPSRFSGSGSGAEFTLTISSLQPDDFATYYCQSYFDSTTIAFGQGTKLTVL
